Laboratory results as given in patent US6835382B2, “Ii peptide therapeutics to enhance antigen presentation” (University of Massachusetts, priority 1996, dated 2004).
Non-standard residues stand in square brackets, D forms with d. hArg = N=C(N)NCCCC[C@H](N)C(=O)O; Cit = NC(=O)NCCC[C@H](N)C(=O)O

Target: T1, murine E^d MHC class II allele (Mus musculus, UniProt P01904+P01915)
T1 sequence (P01904 26-255): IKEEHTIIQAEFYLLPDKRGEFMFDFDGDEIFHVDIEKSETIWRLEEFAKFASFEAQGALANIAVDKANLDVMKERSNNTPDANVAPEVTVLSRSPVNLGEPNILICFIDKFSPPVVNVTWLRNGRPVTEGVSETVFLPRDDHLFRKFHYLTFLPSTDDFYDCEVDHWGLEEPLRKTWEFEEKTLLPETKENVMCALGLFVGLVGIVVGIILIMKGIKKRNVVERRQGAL
T1 sequence (P01915 27-264 limits assumed): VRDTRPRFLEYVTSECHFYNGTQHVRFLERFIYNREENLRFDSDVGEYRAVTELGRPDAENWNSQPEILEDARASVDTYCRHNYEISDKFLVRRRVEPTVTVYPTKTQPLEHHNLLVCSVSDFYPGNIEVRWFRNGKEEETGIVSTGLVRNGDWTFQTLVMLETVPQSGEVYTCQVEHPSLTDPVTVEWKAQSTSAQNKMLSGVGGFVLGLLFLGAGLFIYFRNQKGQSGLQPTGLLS
Experiment: processed antigen assay, E^d allele (APC pulsed with native HEL)
Format: cell-based
Parameters: The A20 and CH27 B cell lymphoma lines express H-2^d and H-2^k alleles, respectively; endogenous in cells; host or cells: A20 B cell lymphoma (mitomycin C-treated or paraformaldehyde-fixed)
Conditions: AE peptide 64 μM; for T cell response relative to baseline (None = 1.00), E^d: Table 31; for T cell response relative to baseline (None = 1.0), 5 μM HEL E^d, first value / T cell response relative to baseline (None = 1.0), 5 μM HEL E^d, second value / T cell response relative to baseline (None = 1.0), 10 μM HEL E^d, first value / T cell response relative to baseline (None = 1.0), 10 μM HEL E^d, second value / T cell response relative to baseline (None = 1.0), 20 μM HEL E^d, first value / T cell response relative to baseline (None = 1.0), 20 μM HEL E^d, second value: Table 29; for T cell response relative to baseline (None = 1.0), 5 μM HEL E^d, first value / T cell response relative to baseline (None = 1.0), 5 μM HEL E^d, second value: native HEL prepulse 5 μM; for T cell response relative to baseline (None = 1.0), 5 μM HEL E^d, first value / T cell response relative to baseline (None = 1.0), 10 μM HEL E^d, first value / T cell response relative to baseline (None = 1.0), 20 μM HEL E^d, first value: supernatant dilution 1:4 (first value); for T cell response relative to baseline (None = 1.0), 5 μM HEL E^d, second value / T cell response relative to baseline (None = 1.0), 10 μM HEL E^d, second value / T cell response relative to baseline (None = 1.0), 20 μM HEL E^d, second value: supernatant dilution 1:8 (second value)
Procedure: In a third type of assay, the “processed antigen assay”, certain of the AE101 series of peptides inhibit stimulation of specific T cell hybridomas by antigenic peptides which are derived from the endogenous processing of a native protein antigen. This assay, which is related to the peptide prepulse assay, is performed by incubating APC with native protein antigen for 8 h, after which the pulsed APC are washed and treated with mitomycin C. Those pulsed APC are then combined with AE101 series peptides and T cell hybridomas and are incubated for 24 h. After that incubation, an aliquot of the culture supernatant is transferred to a second culture to measure T cell stimulation, as reflected in the effect of released interleukins on the growth of an interleukin-dependent, indicator cell line. During the 8 h incubation with native protein antigen, the protein antigen is taken into the APC. The native protein enters the processing pathway within the APC, where it is enzymatically cleaved to peptide fragments. Those peptide fragments with high affinity for the particular MHC class II molecules produced by the APC form antigenic peptide/MHC class II complexes which are transported to the cell surface. At the cell surface, the MHC class II molecules are contacted by the AE101 peptides, which cause the release of the antigenic peptide by the same mechanism proposed for the “peptide prepulse” assay above.
The “processed antigen assay” was carried out under essentially the same conditions as the “peptide prepulse assay”, with the following modifications. Untreated APC were incubated at 1×10^6/mL in 24-well plates (1 mL/well) with native protein antigen for 8 h. Following that incubation, the pulsed APC were washed, treated with mitomycin C, and washed again. AE101 series peptide was added at 64 μM, 16 μM, 4 μM, and 1 μM concentrations for 24 h in the presence of the T cell hybridoma specific for the antigenic peptide. Interleukin release from these cultures was measured by proliferation of HT-2 cells to interleukins in supernatants transferred from the primary culture. The baseline T cell response was measured by culturing T hybridoma cells with the native antigen-prepulsed APC in the absence of AE101 series peptides.
The “processed antigen assay” was carried out under essentially the same conditions as the “peptide prepulse” assay, with the following modifications. Untreated APC were incubated at 1×10^6/mL in 24-well plates (1 mL/well) with native protein antigen for 8 h. Following incubation, the pulsed APC were washed, treated with mitomycin C, and were washed again. The assay conditions were then as described for “peptide prepulse” above. The baseline T cell response was measured by culturing T hybridoma cells with the native antigen-prepulsed APC in the absence of AE101 peptides.
Table 2.9: Activities of substitution series at Leucine^80 in AE114 in a processed antigen assay. […] The results in this assay constitute, relatively, a mirror image of the result in the simultaneous assay (Example 1, Table 7) and parallel those of the antigenic peptide prepulse assay (Example 5, Table 24). Untreated APC were incubated with native HEL, instead of antigenic peptide, for 8 h. After incubation, the pulsed cells were washed and mitomycin C treated before being cocultured with AE-peptides and T cell hybridomas. Wells containing only T cells and native HEL-prepulsed APC were used to determine the Baseline response, or 1, in the absence of AE peptides. The concentration of AE peptide used was 64 μM for these assays. The supernatant dilutions used in the HT-2 cell assay were 1:4 (first value) and 1:8 (second value).

[1] = Table 30, native HEL prepulse 10 μM, supernatant dilution 1:8
[2] = native HEL prepulse 10 μM, supernatant dilution 1:4
[3] = Table 32, native HEL prepulse 20 μM, supernatant dilution 1:4

| Substance | T cell response relative to baseline (None = 1.0), E^d [1] | T cell response relative to baseline (None = 1.00), E^d [2] | T cell response relative to baseline (None = 1.0), 5 μM HEL E^d, first value | T cell response relative to baseline (None = 1.0), 5 μM HEL E^d, second value | T cell response relative to baseline (None = 1.0), 10 μM HEL E^d, first value (native HEL prepulse 10 μM) | T cell response relative to baseline (None = 1.0), 10 μM HEL E^d, second value (native HEL prepulse 10 μM) | T cell response relative to baseline (None = 1.0), 20 μM HEL E^d, first value (native HEL prepulse 20 μM) | T cell response relative to baseline (None = 1.0), 20 μM HEL E^d, second value (native HEL prepulse 20 μM) | other results |
| --- | --- | --- | --- | --- | --- | --- | --- | --- | --- |
| Ac- (mL) RMKLPK-NH2 [AE174] | 0.86 |  |  |  |  |  |  |  |  |
| Ac-ARMKLPKSAK-NH2 [AE120] |  | 0.51 |  |  |  |  |  |  |  |
| Ac-ARMKNPK-NH2 [AE345] |  | 0.81 |  |  |  |  |  |  |  |
| Ac-ARNKLPK-NH2 [AE344] |  | 0.76 |  |  |  |  |  |  |  |
| Ac-ARNKNPF-NH2 [AE347] |  | 0.80 |  |  |  |  |  |  |  |
| Ac-ARNKNPK-NH2 [AE346] |  | 0.78 |  |  |  |  |  |  |  |
| Ac-LR (mL) KLPK-NH2 [AE302] | 0.51 |  |  |  |  |  |  |  |  |
| Ac-LR (mL) KYPK-NH2 [AE303] | 0.82 |  |  |  |  |  |  |  |  |
| Ac-LR (mL) KYPk-NH2 [AE305] | 0.70 |  |  |  |  |  |  |  |  |
| Ac-LR (mL) KyPK-NH2 [AE304] | 0.77 |  |  |  |  |  |  |  |  |
| Ac-LR (mL) KyPk-NH2 [AE306] | 0.68 |  |  |  |  |  |  |  |  |
| Ac-LR HArg KLPK-NH2 [AE197] |  |  |  |  |  |  |  |  | T cell response relative to baseline (None = 1.0), E^d [3]: 0.45 |
| Ac-LR L KLPK-NH2 (Ac-LRLKLPK-NH2; not fully specified; printed as Ac-LR L KLPK-NH2) [AE206] | 0.22 | 0.41 |  |  |  |  |  |  | T cell response relative to baseline (None = 1.0), E^d [3]: 0.46 |
| Ac-LR N KLPK-NH2 (Ac-LRNKLPK-NH2) [AE202] |  | 0.76 |  |  |  |  |  |  |  |
| Ac-LRLK HArg PK-NH2 [AE341] |  | 0.12 |  |  |  |  |  |  |  |
| Ac-LRLKWPK-NH2 [AE309] | 0.29 | 0.44 |  |  |  |  |  |  | T cell response relative to baseline (None = 1.0), E^d [3]: 0.55 |
| Ac-LRLKYPK-NH2 [AE301] | 0.19 | 0.46 |  |  |  |  |  |  | T cell response relative to baseline (None = 1.0), E^d [3]: 0.54 |
| Ac-LRLKYPk-NH2 [AE307] | 0.48 |  |  |  |  |  |  |  |  |
| Ac-LRLKyPK-NH2 [AE308] | 0.60 |  |  |  |  |  |  |  |  |
| Ac-LRM M LPK-NH2 (Ac-LRMMLPK-NH2) [AE220] |  |  |  |  |  |  |  |  | T cell response relative to baseline (None = 1.0), E^d [3]: 0.63 |
| Ac-LRMK (mL) PK-NH2 [AE175] | 0.70 |  |  |  |  |  |  |  |  |
| Ac-LRMK Cit PK-NH2 (Ac-LRMK[Cit]PK-NH2; SMILES CSCC[C@H](NC(=O)[C@H](CCCNC(=N)N)NC(=O)[C@H](CC(C)C)NC(C)=O)C(=O)N[C@@H](CCCCN)C(=O)N[C@@H](CCCNC(N)=O)C(=O)N1CCC[C@H]1C(=O)N[C@@H](CCCCN)C(N)=O) [AE226] |  |  | 0.60, | 0.34 | 0.68, | 0.58 | 0.95, | 0.87 |  |
| Ac-LRMK D PK-NH2 (Ac-LRMKDPK-NH2) [AE230] |  |  | 0.81, | 0.62 | 0.93, | 0.77 | 1.1, | 0.98 |  |
| Ac-LRMK E PK-NH2 (Ac-LRMKEPK-NH2) [AE231] |  |  | 0.96, | 0.85 | 0.94, | 0.83 | 1.0 | 1.1 |  |
| Ac-LRMK F PK-NH2 (Ac-LRMKFPK-NH2) [AE234] |  |  | 0.51, | 0.62 | 0.65, | 0.60 | 0.98, | 0.88 |  |
| Ac-LRMK H PK-NH2 (Ac-LRMKHPK-NH2) [AE228] |  |  | 0.35, | 0.45 | 0.41, | 0.41 | 0.71, | 0.61 |  |
| Ac-LRMK HArg PK-NH2 (Ac-LRMK[hArg]PK-NH2; SMILES CSCC[C@H](NC(=O)[C@H](CCCNC(=N)N)NC(=O)[C@H](CC(C)C)NC(C)=O)C(=O)N[C@@H](CCCCN)C(=O)N[C@@H](CCCCNC(=N)N)C(=O)N1CCC[C@H]1C(=O)N[C@@H](CCCCN)C(N)=O) [AE227] |  | 0.35 | 0.18, | 0.33 | 0.18, | 0.19 | 0.45, | 0.36 |  |
| Ac-LRMK K PK-NH2 (Ac-LRMKKPK-NH2) [AE229] |  |  | 0.38, | 0.58 | 0.55, | 0.49 | 0.71, | 0.62 |  |
| Ac-LRMK M PK-NH2 (Ac-LRMKMPK-NH2) [AE236] |  |  | 0.41, | 0.58 | 0.56, | 0.53 | 0.76, | 0.72 |  |
| Ac-LRMK N PK-NH2 (Ac-LRMKNPK-NH2) [AE232] |  | 0.46 | 0.50, | 0.50 | 0.68, | 0.61 | 0.97, | 0.83 |  |
